Measurements taken from publication PMC6362288.

Biological target: protein G (UniProt P19909)
Assay: ELISA; polystyrene wells modified with the PrG-Gra complex (PrG adsorbed on graphene, 2:1); mAb 5, 10, 15 µg/ml; unreacted mAb in the supernatant by Bradford, bound mAb by Anti-IgGk-HRP at 450 nm

mouse monoclonal IgG2b (mAb) (antibody) gave an absorbance (Anti-IgGk-HRP) against PS modified with the PrG alone of 2 fold.
